In this test the target is T1, HLA-A*02:01 (human).
T1 construct: MHC class I monomer of the UV-ligand exchange assay; also called peptide-receptive MHC molecules; MHC class I
Description: UV peptide-exchange ELISA. The source says: Candidate peptides for T cell based therapies according to the present invention were further tested for their MHC binding capacity (affinity). The individual peptide-MHC complexes were produced by UV-ligand exchange, where a UV-sensitive peptide is cleaved upon UV-irradiation, and exchanged with the peptide of interest as analyzed. Only peptide candidates that can effectively bind and stabilize the peptide-receptive MHC molecules prevent dissociation of the MHC complexes. To determine the yield of the exchange reaction, an ELISA was performed based on the detection of the light chain (β2m) of stabilized MHC complexes. The assay was performed as generally described in Rodenko et al. (Rodenko et al., 2006).
96 well MAXISorp plates (NUNC) were coated over night with 2 ug/ml streptavidin in PBS at room temperature, washed 4× and blocked forl h at 37° C. in 2% BSA containing blocking buffer. Refolded HLA-A*02:01/MLA-001 monomers served as standards, covering the range of 15-500 ng/ml. Peptide-MHC monomers of the UV-exchange reaction were diluted 100 fold in blocking buffer. Samples were incubated for 1 h at 37° C., washed four times, incubated with 2 ug/ml HRP conjugated anti-β2m for 1 h at 37° C., washed again and detected with TMB solution that is stopped with […]. Absorption was measured at 450 nm. Candidate peptides that show a high exchange yield (preferably higher than 50%, most preferred higher than 75%) are generally preferred for a generation and production of antibodies or fragments thereof, and/or T cell receptors or fragments thereof, as they show sufficient avidity to the MHC molecules and prevent dissociation of the MHC complexes.

From patent publication US20170165337A1 (IMMATICS BIOTECHNOLOGIES, published 2017) come the findings set out here.

Where no end group is shown, it is not given here. [ ]: non-standard residue; d: D form. pS = N[C@@H](COP(=O)(O)O)C(=O)O Where only a bound is given, the exact number is not on record here.

B1: MTAGFSTIAGSV (peptide)
peptide: MTAGFSTIAGSV
In turn, B1 yielded a peptide exchange yield of 10 to 20%.

B2: AIDAALTSV (peptide)
peptide: AIDAALTSV
Turning to B2, the peptide exchange yield is 50 to 75%.

B3: LLLAEAELLTL (peptide)
peptide: LLLAEAELLTL
For the molecule B3, the peptide exchange yield is 20 to 50%.

B4: KLWNVAAPLYL (peptide)
peptide: KLWNVAAPLYL
Take B4: the peptide exchange yield was 50 to 75%.

B5: SLNIGDVQL (peptide)
peptide: SLNIGDVQL
B5 displayed a peptide exchange yield of 50 to 75%.

B6: SLFDQPLSII (peptide)
peptide: SLFDQPLSII
Turning to B6, the peptide exchange yield lay in the range of 50 to 75%.

B7: FMASHLDYL (peptide)
peptide: FMASHLDYL
For the molecule B7, the peptide exchange yield is 50 to 75%.

B8: SLLAELHVL (peptide)
peptide: SLLAELHVL
B8: the peptide exchange yield lay in the range of 50 to 75%.

B9: LLPEGGITAI (peptide)
peptide: LLPEGGITAI
Molecule B9 registered a peptide exchange yield of 50 to 75%.

B10: LQALEVLKI (peptide)
peptide: LQALEVLKI
Take B10: the peptide exchange yield is 10 to 20%.

B11: NLDKLWTLV (peptide)
peptide: NLDKLWTLV
For the molecule B11, the peptide exchange yield lay within 20 to 50%.

B12: LLFDKLYLL (peptide)
peptide: LLFDKLYLL
Molecule B12 yielded a peptide exchange yield of 50 to 75%.

B13: LLLEIGEVGKLFV (peptide)
peptide: LLLEIGEVGKLFV
In turn, B13 registered a peptide exchange yield of 50 to 75%.

B14: SLFDSAYGA (peptide)
peptide: SLFDSAYGA
With B14, the peptide exchange yield is 50 to 75%.

B15: VLPAEFFEV (peptide)
peptide: VLPAEFFEV
Consider B15, for which the peptide exchange yield was 50 to 75%.

B16: ALGEDEITL (peptide)
peptide: ALGEDEITL
The molecule B16 registered a peptide exchange yield of 50 to 75%.

B17: RLLILENILL (peptide)
peptide: RLLILENILL
Molecule B17 yielded a peptide exchange yield of 50 to 75%.

B18: KVPAEEVLVAV (peptide)
peptide: KVPAEEVLVAV
In turn, B18 came in with a peptide exchange yield of 50 to 75%.

B19: SLMLEVPAL (peptide)
peptide: SLMLEVPAL
Regarding B19, the peptide exchange yield is 50 to 75%.

B20: SIVASLITV (peptide)
peptide: SIVASLITV
In the case of B20, the peptide exchange yield lay within 50 to 75%.

B21: QILSEIVEA (peptide)
peptide: QILSEIVEA
The molecule B21 came in with a peptide exchange yield of 20 to 50%.

B22: KLGGTPAPA (peptide)
peptide: KLGGTPAPA
B22 registered a peptide exchange yield of 20 to 50%.

B23: NLLDIDAPVTV (peptide)
peptide: NLLDIDAPVTV
On to B23, for which the peptide exchange yield lay within 50 to 75%.

B24: SLIRILQTI (peptide)
peptide: SLIRILQTI
B24 came in with a peptide exchange yield of 50 to 75%.

B25: VVDGMPPGV (peptide)
peptide: VVDGMPPGV
As for B25, the peptide exchange yield lay in the range of 50 to 75%.

B26: ALLRLLPGL (peptide)
peptide: ALLRLLPGL
B26 had a peptide exchange yield of 50 to 75%.

B27: LLIPVVPGV (peptide)
peptide: LLIPVVPGV
The molecule B27 came in with a peptide exchange yield of 50 to 75%.

B28: YLLSGDISEA (peptide)
peptide: YLLSGDISEA
Molecule B28 came in with a peptide exchange yield of 50 to 75%.

B29: ALFTFJPLTV (peptide)
peptide: ALFTF[pS]PLTV
In the case of B29, the peptide exchange yield was 50 to 75%.

B30: AIPPSFASIFL (peptide)
peptide: AIPPSFASIFL
With B30, the peptide exchange yield fell in the range of 50 to 75%.

B31: SALDTITTV (peptide)
peptide: SALDTITTV
As for B31, the peptide exchange yield is 50 to 75%.

B32: VIYTLIHYI (peptide)
peptide: VIYTLIHYI
B32 yielded a peptide exchange yield of 50 to 75%.

B33: LLFDHLEPMEL (peptide)
peptide: LLFDHLEPMEL
On to B33, for which the peptide exchange yield is 50 to 75%.

B34: LLILENILL (peptide)
peptide: LLILENILL
B34: the peptide exchange yield lay in the range of 50 to 75%.

B35: LLVLIPVYL (peptide)
peptide: LLVLIPVYL
Regarding B35, the peptide exchange yield lay in the range of 10 to 20%.

B36: LVYEAIIMV (peptide)
peptide: LVYEAIIMV
B36 came in with a peptide exchange yield of 50 to 75%.

B37: KLWEGLTELV (peptide)
peptide: KLWEGLTELV
On to B37, for which the peptide exchange yield fell in the range of 50 to 75%.

B38: RLYEITIEV (peptide)
peptide: RLYEITIEV
Consider B38, for which the peptide exchange yield is at least 75%.

B39: NLTDVVEKL (peptide)
peptide: NLTDVVEKL
As for B39, the peptide exchange yield lay in the range of 50 to 75%.

B40: KLILLDTPLFL (peptide)
peptide: KLILLDTPLFL
As for B40, the peptide exchange yield is 50 to 75%.

B41: LLIGATMQV (peptide)
peptide: LLIGATMQV
As for B41, the peptide exchange yield lay within 50 to 75%.

B42: SLDNGGYYI (peptide)
peptide: SLDNGGYYI
As to B42, the peptide exchange yield lay in the range of 50 to 75%.

B43: SILETVATL (peptide)
peptide: SILETVATL
The molecule B43 gave a peptide exchange yield of 50 to 75%.

B44: LLSEEEYHL (peptide)
peptide: LLSEEEYHL
Turning to B44, the peptide exchange yield is 50 to 75%.

B45: QIAELPATSV (peptide)
peptide: QIAELPATSV
Take B45: the peptide exchange yield lay in the range of 50 to 75%.

B46: LLLEETEKQAV (peptide)
peptide: LLLEETEKQAV
Consider B46, for which the peptide exchange yield is 50 to 75%.

B47: ALPEVSVEA (peptide)
peptide: ALPEVSVEA
For B47, the peptide exchange yield was 50 to 75%.

B48: KLMNDIADI (peptide)
peptide: KLMNDIADI
Molecule B48 gave a peptide exchange yield of 20 to 50%.

B49: ILYNLYDLL (peptide)
peptide: ILYNLYDLL
B49 displayed a peptide exchange yield of 50 to 75%.

B50: IQDRAVPSL (peptide)
peptide: IQDRAVPSL
The molecule B50 gave a peptide exchange yield of 20 to 50%.

B51: NLIKTVIKL (peptide)
peptide: NLIKTVIKL
B51: the peptide exchange yield lay in the range of 50 to 75%.

B52: MLLEHGITLV (peptide)
peptide: MLLEHGITLV
The molecule B52 yielded a peptide exchange yield of at least 75%.

B53: SIIEGPIIKL (peptide)
peptide: SIIEGPIIKL
The molecule B53 displayed a peptide exchange yield of 50 to 75%.

B54: LLPTAPTTV (peptide)
peptide: LLPTAPTTV
Take B54: the peptide exchange yield lay in the range of 50 to 75%.

B55: LIPEGPPQV (peptide)
peptide: LIPEGPPQV
Regarding B55, the peptide exchange yield fell in the range of 50 to 75%.

B56: SLNIRDFTM (peptide)
peptide: SLNIRDFTM
The molecule B56 showed a peptide exchange yield of 50 to 75%.

B57: SLLAELHVLTV (peptide)
peptide: SLLAELHVLTV
On to B57, for which the peptide exchange yield was at least 75%.

B58: KTLDVDATYEI (peptide)
peptide: KTLDVDATYEI
With B58, the peptide exchange yield was 50 to 75%.

B59: QLDEPAPQV (peptide)
peptide: QLDEPAPQV
B59: the peptide exchange yield is 20 to 50%.

B60: QLLDTYFTL (peptide)
peptide: QLLDTYFTL
Regarding B60, the peptide exchange yield lay in the range of 50 to 75%.

B61: FVYGESVEL (peptide)
peptide: FVYGESVEL
Turning to B61, the peptide exchange yield lay in the range of 50 to 75%.
